Test results taken from US20240132548A1 (Janssen / Centocor, published 2024).

Tests used:
Assay in all cases: BLI (Octet), biotinylated mAb on streptavidin sensors, culture supernatant
[1] = molecular target: T1, RSV181179 (I152M + K226M + D486N) (respiratory syncytial virus, subgroup B …, UniProt O36634 26-109; P13843 137-540)
T1 construct: Measured in crude culture supernatant, no furin co-transfection
T1 chain 1: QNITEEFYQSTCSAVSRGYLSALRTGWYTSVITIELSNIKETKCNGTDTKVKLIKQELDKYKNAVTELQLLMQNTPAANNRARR
T1 chain 2: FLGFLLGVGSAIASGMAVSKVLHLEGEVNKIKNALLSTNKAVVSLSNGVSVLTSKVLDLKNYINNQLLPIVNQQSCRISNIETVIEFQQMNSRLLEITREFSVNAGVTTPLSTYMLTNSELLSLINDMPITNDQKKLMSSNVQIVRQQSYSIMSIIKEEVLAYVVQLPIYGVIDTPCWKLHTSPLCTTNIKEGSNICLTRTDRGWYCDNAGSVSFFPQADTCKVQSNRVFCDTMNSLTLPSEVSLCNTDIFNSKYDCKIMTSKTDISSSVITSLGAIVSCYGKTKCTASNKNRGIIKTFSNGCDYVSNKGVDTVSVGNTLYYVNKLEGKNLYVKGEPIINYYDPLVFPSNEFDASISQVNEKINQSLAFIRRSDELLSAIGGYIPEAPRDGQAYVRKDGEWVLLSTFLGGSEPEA
Method: (§1) Quantitative Octet (BioLayer Interferometry) was used for measuring protein concentration in the supernatants at day of harvest and after 7 or 30 days storage at 4° C. CR9501 (an antibody specifically recognizing pre-fusion RSV F protein, which comprises the variable regions of the antibodies 58C5 as described in WO2012/006596) and CR9506 (recognizing pre-fusion and post-fusion RSV F protein and comprising a heavy chain variable region comprising SEQ ID NO: 21, and a light chain variable region comprising SEQ ID NO: 22) were biotinylated by standard protocols and immobilized on Streptavidin biosensors (ForteBio, Portsmouth, UK).
(§2) Afterwards, the coated biosensors were blocked in mock cell culture supernatant. A quantitative experiment was performed as follows: temperature 30° C., shaking speed 1000 rpm, time of the assay 300 sec. The concentration of the protein was calculated using a standard curve. The standard curve was prepared for each coated antibody CR9501 and CR9506 using the pre-fusion RSV FA protein (SEQ ID NO: 19; described previously in WO17174568) diluted in mock medium. […] The data analysis was done using the ForteBio Data Analysis 10.0.1.6 software (ForteBio).

[2] = molecular target: T2, RSV180915 (I152M + K226M + D486N + S215P) (respiratory syncytial virus, subgroup B …, UniProt O36634 26-109; P13843 137-540)
T2 chain 1: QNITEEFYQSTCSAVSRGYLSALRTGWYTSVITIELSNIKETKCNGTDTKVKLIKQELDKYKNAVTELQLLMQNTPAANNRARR
T2 chain 2: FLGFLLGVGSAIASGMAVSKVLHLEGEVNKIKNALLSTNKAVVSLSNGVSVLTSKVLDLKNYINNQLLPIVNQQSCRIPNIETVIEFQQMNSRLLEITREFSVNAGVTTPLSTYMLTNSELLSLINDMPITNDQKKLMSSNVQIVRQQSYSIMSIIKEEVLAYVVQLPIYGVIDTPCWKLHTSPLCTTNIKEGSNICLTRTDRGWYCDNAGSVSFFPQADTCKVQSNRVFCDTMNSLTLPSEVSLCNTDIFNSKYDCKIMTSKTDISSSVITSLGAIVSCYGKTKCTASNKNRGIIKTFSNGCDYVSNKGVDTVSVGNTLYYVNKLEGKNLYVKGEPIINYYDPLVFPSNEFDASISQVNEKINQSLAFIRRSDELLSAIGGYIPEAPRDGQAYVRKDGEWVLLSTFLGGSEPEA
Method: as §1, §2

[3] = molecular target: T3, RSV180916 (I152M + K226M + D486N + S215P + L203I + P101Q; C-tag, RSV A signal peptide) (respiratory syncytial virus, subgroup B …, UniProt O36634 26-109; P13843 137-540)
T3 chain 1: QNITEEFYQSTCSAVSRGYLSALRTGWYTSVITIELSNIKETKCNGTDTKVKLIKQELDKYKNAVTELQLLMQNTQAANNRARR
T3 chain 2: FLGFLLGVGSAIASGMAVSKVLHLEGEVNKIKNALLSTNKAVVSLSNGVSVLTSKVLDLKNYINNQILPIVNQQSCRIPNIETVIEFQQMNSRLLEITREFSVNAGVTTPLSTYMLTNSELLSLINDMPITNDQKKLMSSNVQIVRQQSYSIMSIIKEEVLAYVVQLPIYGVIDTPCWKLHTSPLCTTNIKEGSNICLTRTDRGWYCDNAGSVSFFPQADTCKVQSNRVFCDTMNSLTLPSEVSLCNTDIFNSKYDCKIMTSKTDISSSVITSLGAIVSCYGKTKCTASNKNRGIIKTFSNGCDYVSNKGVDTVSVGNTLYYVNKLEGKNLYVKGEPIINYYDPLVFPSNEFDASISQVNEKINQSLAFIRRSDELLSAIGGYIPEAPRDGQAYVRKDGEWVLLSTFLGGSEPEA
Method: as §1, §2

[4] = molecular target: T4, RSV180910 (RSV FB signal peptide, C-tag) (respiratory syncytial virus, subgroup B …, UniProt O36634 26-109; P13843 137-540)
T4 construct: Same mature protein as RSV180916, expressed with the RSV B signal peptide; measured in culture supernatant, furin co-transfected
T4 chain 1: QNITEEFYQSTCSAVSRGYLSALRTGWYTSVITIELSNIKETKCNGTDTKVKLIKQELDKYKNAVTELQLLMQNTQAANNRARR
T4 chain 2: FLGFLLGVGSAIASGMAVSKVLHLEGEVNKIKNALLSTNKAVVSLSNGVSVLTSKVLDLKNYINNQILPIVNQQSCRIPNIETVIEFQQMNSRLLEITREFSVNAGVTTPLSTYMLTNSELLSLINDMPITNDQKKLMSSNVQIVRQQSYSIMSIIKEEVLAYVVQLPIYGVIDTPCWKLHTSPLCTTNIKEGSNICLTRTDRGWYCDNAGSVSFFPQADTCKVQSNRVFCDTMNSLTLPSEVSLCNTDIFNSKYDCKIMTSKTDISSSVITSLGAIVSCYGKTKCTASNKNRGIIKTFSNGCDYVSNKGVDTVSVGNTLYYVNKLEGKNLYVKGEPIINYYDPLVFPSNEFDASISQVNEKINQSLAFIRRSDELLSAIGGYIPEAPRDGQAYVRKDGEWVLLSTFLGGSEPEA
Method: as §1, §2

Measured: binding result

B1: CR9506 (antibody, human IgG1, kappa, V domains shown)
VH: EVQLVQSGAEVKKPGSSVKVSCKASGGTFSRSLITWVRQAPGQGLEWMGEISLVFGSAKNAQKFQGRVTITADESTSTAHMEMISLKHEDTAVYYCAAHQYGSGTHNNFWDESELRFDLWGQGTLVTVSS
VL: DIVMTQSPSSLSASVGDRVTIACRASQSIGTYLNWYQQKPGKAPKLLIYAASSLQSGVPSRFSGSGSGTHFTLAISSLQAEDFATYSCQQSYTIPYTFGQGTKLEIKR
notes: Biotinylated for Octet; coated and also used HRP-labelled as detection antibody in the ELISA
binds: all assays above
